Here are results for one molecule from patent US20250092426, “CAS ENDONUCLEASES AND RELATED METHODS” (Flagship Pioneering Innovations VII, LLC, published 2025).

The series concerns the target T1, CasEnd-34 (synthetic construct).
T1 chain: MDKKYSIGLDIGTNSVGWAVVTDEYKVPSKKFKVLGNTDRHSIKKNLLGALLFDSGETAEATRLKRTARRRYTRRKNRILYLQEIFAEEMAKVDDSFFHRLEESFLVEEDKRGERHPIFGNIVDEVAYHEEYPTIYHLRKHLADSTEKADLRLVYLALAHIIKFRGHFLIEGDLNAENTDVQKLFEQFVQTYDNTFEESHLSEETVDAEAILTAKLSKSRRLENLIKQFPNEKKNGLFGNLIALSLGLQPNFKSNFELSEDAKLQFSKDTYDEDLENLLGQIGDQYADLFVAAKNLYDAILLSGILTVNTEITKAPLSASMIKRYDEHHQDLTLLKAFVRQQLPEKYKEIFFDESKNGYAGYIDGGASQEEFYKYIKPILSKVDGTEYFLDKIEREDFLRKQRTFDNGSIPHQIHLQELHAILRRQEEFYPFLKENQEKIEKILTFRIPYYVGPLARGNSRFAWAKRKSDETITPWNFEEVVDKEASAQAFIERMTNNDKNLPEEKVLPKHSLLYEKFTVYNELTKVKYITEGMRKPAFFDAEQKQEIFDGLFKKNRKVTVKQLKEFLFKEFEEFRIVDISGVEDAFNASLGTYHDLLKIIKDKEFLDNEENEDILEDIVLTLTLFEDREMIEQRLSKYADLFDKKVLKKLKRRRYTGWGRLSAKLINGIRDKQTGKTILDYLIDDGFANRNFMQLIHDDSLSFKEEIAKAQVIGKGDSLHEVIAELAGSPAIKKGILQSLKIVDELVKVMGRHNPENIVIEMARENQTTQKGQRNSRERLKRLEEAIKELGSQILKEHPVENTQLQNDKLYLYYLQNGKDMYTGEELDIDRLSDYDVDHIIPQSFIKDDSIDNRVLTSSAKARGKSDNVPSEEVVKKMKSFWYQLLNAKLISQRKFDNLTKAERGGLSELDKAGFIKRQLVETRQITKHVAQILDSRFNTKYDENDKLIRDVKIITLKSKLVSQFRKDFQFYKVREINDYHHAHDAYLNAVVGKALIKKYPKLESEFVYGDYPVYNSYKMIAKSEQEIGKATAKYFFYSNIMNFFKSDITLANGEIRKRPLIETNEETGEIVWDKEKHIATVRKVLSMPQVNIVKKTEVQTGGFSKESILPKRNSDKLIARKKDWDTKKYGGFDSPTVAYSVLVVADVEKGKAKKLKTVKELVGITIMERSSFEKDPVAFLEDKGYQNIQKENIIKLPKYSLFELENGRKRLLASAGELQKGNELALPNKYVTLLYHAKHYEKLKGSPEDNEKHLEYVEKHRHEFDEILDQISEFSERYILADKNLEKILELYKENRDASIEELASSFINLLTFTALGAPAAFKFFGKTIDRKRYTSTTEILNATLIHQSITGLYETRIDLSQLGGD
Description: cell_activity; +++; HEK293T; PAM not stated. The procedure, abridged: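 Editing activity was scored as the fraction of GFP+ cells on day 4 by flow cytometry. BFP-expressing HEK293T cells (250,000) received by nucleofection 200 ng plasmid for the RT-Cas fusion protein and 200 ng template RNA plasmid designed to convert BFP to GFP.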

B1: BFP-to-GFP template RNA ; BFP reporter protospacer (ssRNA ; dsDNA)
RNA: GCCGAAGCACUGCACGCCGUGUUUUAGAGCUAGAAAUAGCAAGUUAAAAUAAGGCUAGUCCGUUAUCAACUUGAAAAAGUGGCACCGAGUCGGUGCACCCUGACGUACGGCGUGCAGUGCUU
DNA 1: GCCGAAGCACTGCACGCCGT
DNA 2: ACGGCGTGCAGTGCTTCGGC
In the case of B1, the activity was ≥ 100 % of reference.
